As usually defined, the Kd is the free concentration of one partner at which half of the binding sites on the other are occupied at equilibrium, for simple one-to-one binding. Lower therefore signals a tighter complex.

Changes are numbered by the printed parent chain. Where “and” joins values, the source holds several entries; their conditions need not be identical. Equal values may be shown once. Some results are limits rather than exact numbers.

This is an account of results in patent US20220289850 (published 2022).

B1: ADWA11 VH05/VK01 (VH05-2_VK01) Fab (antibody, V domains shown)
VH: EVQLVESGGGLVQPGGSLRLSCAASGFNIKDYYMNWVRQAPGKGLEWVGWIDPDNGNTIYDPKFQGRFTISADTSKNSAYLQMNSLRAEDTAVYYCARRLLMDYWGQGTLVTVSS
VL: DIQMTQSPSSLSASVGDRVTITCRSTKSLLHFNGNTYLFWYQQKPGKAPKRLIYYMSNLASGVPSRFSGSGSGTDFTLTISSLQPEDFATYYCMQSLEYPFTFGQGTKVEIK
B2: ADWA11 2.4 Fab (antibody, V domains shown)
VH: B1 VH with N55Q, D61E
VL: B1 VL with L30S, N58S, M94Q, Q105G
B3: Mouse hybridoma ADWA-11 Fab (antibody, V domains shown)
VH: EVQLQQSGAELVRPGAFVKLSCKASGFNIKDYYMNWVLQRPEQGLEWIGWIDPDNGNTIYDPKFQGKASITADTSSNTAYLQLSSLTSEDTAVYYCARRLLMDYWGQGTSVTVSS
VL: DIVMTQAAPSVPVTPGESVSISCRSTKSLLHFNGNTYLFWFLQRPGQSPQRLIYYMSNLASGVPDRFSGRGSGTDFTLRISRVEAEDVGVYYCMQSLEYPFTFGTGTKLEIK

The target of this experiment is T1, mouse integrin avb8 (mouse).
T1 chain 1: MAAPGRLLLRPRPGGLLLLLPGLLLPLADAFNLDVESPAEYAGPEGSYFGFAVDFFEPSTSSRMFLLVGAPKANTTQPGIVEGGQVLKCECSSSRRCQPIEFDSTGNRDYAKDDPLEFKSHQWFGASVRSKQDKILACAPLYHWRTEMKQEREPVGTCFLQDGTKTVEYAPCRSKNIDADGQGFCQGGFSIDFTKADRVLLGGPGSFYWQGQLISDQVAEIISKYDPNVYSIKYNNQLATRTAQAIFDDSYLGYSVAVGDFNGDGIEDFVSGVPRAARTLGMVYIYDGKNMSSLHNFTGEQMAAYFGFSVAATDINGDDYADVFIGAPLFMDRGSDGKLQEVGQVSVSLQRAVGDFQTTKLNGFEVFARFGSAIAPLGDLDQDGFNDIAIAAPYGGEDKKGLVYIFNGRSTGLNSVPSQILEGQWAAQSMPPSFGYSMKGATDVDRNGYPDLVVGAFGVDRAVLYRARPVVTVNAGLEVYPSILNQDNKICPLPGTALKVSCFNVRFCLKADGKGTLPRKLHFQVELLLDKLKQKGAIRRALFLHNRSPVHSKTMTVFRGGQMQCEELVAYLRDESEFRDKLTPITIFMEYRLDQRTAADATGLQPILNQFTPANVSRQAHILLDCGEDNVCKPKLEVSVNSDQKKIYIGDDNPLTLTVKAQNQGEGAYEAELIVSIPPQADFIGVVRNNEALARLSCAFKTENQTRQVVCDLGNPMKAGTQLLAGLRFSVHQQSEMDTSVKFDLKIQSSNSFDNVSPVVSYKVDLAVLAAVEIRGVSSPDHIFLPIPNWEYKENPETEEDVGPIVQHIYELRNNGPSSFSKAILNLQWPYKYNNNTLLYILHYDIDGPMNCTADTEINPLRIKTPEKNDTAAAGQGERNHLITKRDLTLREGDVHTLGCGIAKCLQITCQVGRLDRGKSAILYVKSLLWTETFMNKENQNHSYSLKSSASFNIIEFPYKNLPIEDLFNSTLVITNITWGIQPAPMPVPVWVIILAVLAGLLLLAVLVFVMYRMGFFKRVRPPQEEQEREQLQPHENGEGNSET
T1 chain 2: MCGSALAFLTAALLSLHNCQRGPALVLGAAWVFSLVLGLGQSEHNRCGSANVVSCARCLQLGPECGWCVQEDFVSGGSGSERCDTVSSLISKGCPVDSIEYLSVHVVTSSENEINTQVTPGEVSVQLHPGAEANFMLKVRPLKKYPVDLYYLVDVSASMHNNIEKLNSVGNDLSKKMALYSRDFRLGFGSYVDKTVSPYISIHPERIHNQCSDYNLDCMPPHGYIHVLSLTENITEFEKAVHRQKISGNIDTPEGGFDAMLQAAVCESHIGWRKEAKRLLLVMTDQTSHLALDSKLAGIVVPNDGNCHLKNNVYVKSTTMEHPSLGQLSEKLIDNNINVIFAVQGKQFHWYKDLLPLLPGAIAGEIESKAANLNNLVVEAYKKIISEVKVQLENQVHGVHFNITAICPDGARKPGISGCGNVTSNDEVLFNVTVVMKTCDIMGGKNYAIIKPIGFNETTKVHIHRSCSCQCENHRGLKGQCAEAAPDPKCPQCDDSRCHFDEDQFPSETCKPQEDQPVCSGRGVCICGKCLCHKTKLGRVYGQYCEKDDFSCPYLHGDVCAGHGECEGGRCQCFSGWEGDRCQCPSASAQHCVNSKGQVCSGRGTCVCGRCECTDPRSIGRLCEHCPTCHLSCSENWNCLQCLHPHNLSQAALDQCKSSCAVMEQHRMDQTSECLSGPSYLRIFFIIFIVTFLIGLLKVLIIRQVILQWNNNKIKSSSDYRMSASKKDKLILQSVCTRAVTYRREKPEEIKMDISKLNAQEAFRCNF
The experiment in a line: SPR 25C.
In the case of B1, the Kd is < 0.1 nM and 0.137 nM.

With B2, the Kd is less than 0.2 nM.

Take B3: the affinity, expressed as Kd, was 0.489 nM.
